Measurements taken from article PMC9828358.

Key:
[1] = target: 33‐mer gliadin peptide (wheat); test: other fluorescence titration; intrinsic Tyr steady-state fluorescence anisotropy against peptide concentration (100-600 μM), stabilised aqueous solution pH 6.5, 25 °C, excitation 280 nm, emission 305 nm; simple one-to-one binding model; step: association of oligomers into the larger structures
[2] = target: 33‐mer gliadin peptide (wheat); test: surface tension (Wilhelmy plate); titration of freshly filtered (220 nm cut-off) peptide into the subphase, nanomolar range, 22 °C; critical concentration of aggregation

Substance: 33‐mer gliadin peptide
- Kd [1]: 165 µM
- critical concentration of aggregation (CAC) [2]: 75 nM
